We go through one protein from PMC6390363, “Tau as a mediator of neurotoxicity associated to cerebral amyloid angiopathy” (Acta Neuropathologica Communications, 2019).

This data set concerns the molecule itself. As to the kind of experiment: SDS-PAGE and Western blot of the stirred peptide; ADan peptide 0.5 mg/mL in PBS without calcium and magnesium, stirred at room temperature for up to 48 h, aliquots at 2, 8, 24 and 48 h; blots with anti-ADan 1699 and the conformational anti-oligomer antibody F11G3.

B1: ADan peptide (Danish amyloid) (peptide)
peptide: EASNCFAIRHFENKFAVETLICFNLFLNSQEKHY
notes: the C-terminal part differs from wild-type BRI2; also called ADan amyloid peptide; ADan recombinant peptide; source: synthetic peptide (ThermoFisher Scientific, Fmoc-based solid phase peptide synthesis, purified by HPLC)
In the case of B1, the binding result is reported as “binds”.
